This is an account of results in patent publication US20190338018A1.

For this assay, the target named is DNABII protein tips. Nature of the assay: cell-based or functional assay.

B1: mAb mIhfB4NTHI Fab (murine, clone 12E6.F8.D12.D5) (Fab, V domains shown)
VH: EVQLQESGAELVRSGASVKLSCTASGFNIKDYYMHWVKQRPEQGLEWIGWIDPENDDTEYVPKFQGKASMTADTSSNTAYLQLSSLTSEDTAVYYCTELGAYWGQGTLV
VL: not shown
In turn, B1 came in with a Reduction in Biomass (in vitro vs NTHI biofilms, 171 nM, COMSTAT2, relative to nonspecific murine IgG1) of 77% and a reduction in biomass of NTHI 86-028NP biofilm in vitro, relative to mAb IgG1 Fab control of 74%.

B2: mAb mIhfB4NTHI (murine monoclonal IgG, clone 12E6.F8.D12.D5) (antibody, V domains shown)
VH: B1 VH
VL: not shown
Molecule B2 registered a Reduction in Biomass (in vitro vs NTHI biofilms, 171 nM, COMSTAT2, relative to nonspecific murine IgG1) of 71%.
